Experiment [1] deals with N-terminal leucine, isoleucine, and valine. The experiment can be described thus: Binding affinity of PS961 (bulk characterization, polarization), N-terminal leucine, isoleucine, valine. The text has this: To expand the set of recognizable NAAs, N-end rule pathway proteins were investigated as a source of additional recognizers. In a comprehensive screen of diverse ClpS family proteins, a group of ClpS proteins from the bacterial phylum Planctomycetes with native binding to N-terminal leucine, isoleucine, and valine was discovered. […] The median PD of binding to peptides with N-terminal LAA, IAA, and VAA was 1.21, 0.28, and 0.21 s, respectively, in agreement with bulk characterization (FIG. 7C).
(§1) Binding affinity was measured by polarization using a labeled peptide. The polarization response and total intensity measurements were carried out at 20° C. on a microplate fluorometer with 480 nm excitation and 530 nm emission. The interaction of recognizer with labeled peptide containing a target N-terminal residue (XAKLDEESILKQK-FITC (SEQ ID NO: 833)) was performed in PBS buffer at pH 7.4 and readings were collected after 30 min. Multiple analyses were performed at increasing recognizer concentration at a fixed concentration of a target peptide to obtain a titration curve. An equilibrium polarization response at each concentration was plotted and fit to calculate the KD.

The test system of experiment [2] is N-terminal lysine and histidine. The experiment can be described thus: Polarization binding assay of PS691, peptides with N-terminal arginine, lysine, histidine. The settings on record: compared with N-terminal arginine. As to the method: In a separate screen, a diverse set of UBR-box domains from the UBR family of ubiquitin ligases that natively bind N-terminal arginine, lysine, and histidine were investigated. […] PS691 recognized arginine in a peptide with N-terminal RLA with a median PD of 0.23 s (FIG. 2C).
as §1

B1: PS961: Planctomycetes ClpS variant recognizer for N-terminal leucine, isoleucine, and valine (protein)
chain: MPTAASATESAIEDTPAPARPEVDGRTKPKRQPRYHVVLWDDDDHTYQYVVVMLRSLFGHPPSRGYRMAKEMDTQGRVIVLTTTREHAELKRDQIHAFGRDRLLARSKGSMKASIEAEE
In the case of B1, in experiment [1], the Affinity entry is on record as “sub-micromolar”.

B2: PS691: arginine recognizer generated from the UBR-box domain of K. lactis UBR1 protein (protein)
chain: MHSKFSHAGRICGAKFKVGEPIYRCKECSFDDTCVLCVNCFNPKDHTGHHVYTTICTEFNNGICDCGDKEAWNHTLFCKAEEGGSAGSAAGSGEFMHSKFSHAGRICGAKFKVGEPIYRCKECSFDDTCVLCVNCFNPKDHTGHHVYTTICTEFNNGICDCGDKEAWNHTLFCKAEEGGGSHHHHHHHHHHGGGSGGGSGGGSGLNDFFEAQKIEWHEGGGSGGGSGGGSGLNDFFEAQKIEWHE
B2: in experiment [2], the “Binding to N-terminal lysine and histidine” value is given as “Lower affinity”.

(Values after patent publication US20230213527A1, “COMPOSITIONS AND METHODS FOR POLYPEPTIDE ANALYSIS” (Quantum-Si Incorporated, priority 2021, published 2023).)
